# According to patent EP4541814A1 (Cytiva BioProcess R&D AB, dated 2025):
# Changes are numbered by the printed parent chain.
# B1: vh345 (SEQ ID NO:104) (VHH)
# VHH: QVQLQQSGGGSVQAGGSLRLSCTISGRTLSDYTMGWFRQAPGKEREFVAAISWSGAYTKYADSVKGRFTISRDNAKNTVYLQMNSLKPEDTAIYYCAAGPTGLLSKKATPADYDYWGQGTQVTVSS
# B2: vh263 (SEQ ID NO:109) (VHH)
# VHH: B1 VHH with A40R, E44A, I93V
# B3: vh265 (SEQ ID NO:111) (VHH)
# VHH: B1 VHH with A40R, E44G, I93V
# B4: vh264 (SEQ ID NO:110) (VHH)
# VHH: B1 VHH with A40R, E44D, I93V
# B5: vh266 (SEQ ID NO:112) (VHH)
# VHH: B1 VHH with A40R, R45L, I93V
# B6: vh325 (SEQ ID NO:113) (VHH)
# VHH: B1 VHH with A40R, R45I, I93V
# B7: vh118 (SEQ ID NO:80), Example 3 construct (VHH)
# VHH: B1 VHH with A40R, I93V
# B8: vh258 (SEQ ID NO:102) (VHH)
# VHH: B1 VHH with A40I, I93V
# B9: vh260 (SEQ ID NO:106) (VHH)
# VHH: B1 VHH with A40R, K43Q, I93V
# B10: vh261 (SEQ ID NO:107) (VHH)
# VHH: B1 VHH with A40R, K43R, I93V
# B11: vh262 (SEQ ID NO:108) (VHH)
# VHH: B1 VHH with A40R, E44Q, I93V
# B12: vh341 (SEQ ID NO:103) (VHH)
# VHH: B1 VHH with A40K, I93V
# B13: vh346 (SEQ ID NO:114) (VHH)
# VHH: B1 VHH with A40R, F47L
# B14: vh257 (SEQ ID NO:101) (VHH)
# VHH: B1 VHH with A40T, I93V
# B15: vh259 (SEQ ID NO:105) (VHH)
# VHH: B1 VHH with A40R, K43G, I93V
# B16: vh250 (SEQ ID NO:92) (VHH)
# VHH: B1 VHH with A14S, A40R, I93V
# B17: vh253 (SEQ ID NO:95) (VHH)
# VHH: B1 VHH with R19S, A40R, I93V
# B18: vh256 (SEQ ID NO:100) (VHH)
# VHH: B1 VHH with I24V, A40R, I93V
# B19: vh255 (SEQ ID NO:99) (VHH)
# VHH: B1 VHH with I24S, A40R, I93V
# B20: vh344 (SEQ ID NO:98) (VHH)
# VHH: B1 VHH with T23A, A40R
# B21: vh247 (SEQ ID NO:89) (VHH)
# VHH: B1 VHH with Q5V, A40R, I93V
# B22: vh252 (SEQ ID NO:94) (VHH)
# VHH: B1 VHH with R19K, A40R, I93V
# B23: vh251 (SEQ ID NO:93) (VHH)
# VHH: B1 VHH with A14T, A40R, I93V
# B24: vh249 (SEQ ID NO:91) (VHH)
# VHH: B1 VHH with Q6E, A40R, I93V
# B25: vh332 (SEQ ID NO:96) (VHH)
# VHH: B1 VHH with T23V, A40R, I93V
# B26: vh254 (SEQ ID NO:97) (VHH)
# VHH: B1 VHH with T23S, A40R, I93V
# B27: vh248 (SEQ ID NO:90) (VHH)
# VHH: B1 VHH with Q5E, A40R, I93V
# B28: vh284 (SEQ ID NO:137) (VHH)
# VHH: B1 VHH with A40R, I93A
# B29: vh278 (SEQ ID NO:130) (VHH)
# VHH: B1 VHH with A40R, Y80A, I93V
# B30: vh331 (SEQ ID NO:140) (VHH)
# VHH: B1 VHH with A40R, I93L
# B31: vh330 (SEQ ID NO:132) (VHH)
# VHH: B1 VHH with A40R, Y80W, I93V
# B32: Nb276 (SEQ ID NO:128) (VHH)
# VHH: B1 VHH with A40R, Y80L, I93V
# B33: vh270 (SEQ ID NO:121) (VHH)
# VHH: B1 VHH with A40R, A61S, I93V
# B34: Nb273 (SEQ ID NO:124) (VHH)
# VHH: B1 VHH with A40R, N77S, I93V
# B35: vh269 (SEQ ID NO:120) (VHH)
# VHH: B1 VHH with A40R, A61T, I93V
# B36: Nb329 (SEQ ID NO:127) (VHH)
# VHH: B1 VHH with A40R, N77D, I93V
# B37: vh271 (SEQ ID NO:122) (VHH)
# VHH: B1 VHH with A40R, A61V, I93V
# B38: vh328 (SEQ ID NO:119) (VHH)
# VHH: B1 VHH with A40R, A61Q, I93V
# B39: Nb274 (SEQ ID NO:125) (VHH)
# VHH: B1 VHH with A40R, N77E, I93V
# B40: Nb277 (SEQ ID NO:129) (VHH)
# VHH: B1 VHH with A40R, Y80V, I93V
# B41: vh280 (SEQ ID NO:133) (VHH)
# VHH: B1 VHH with A40R, S85N, I93V
# B42: vh286 (SEQ ID NO:139) (VHH)
# VHH: B1 VHH with A40R
# B43: vh327 (SEQ ID NO:118) (VHH)
# VHH: B1 VHH with A40R, A61N, I93V
# B44: vh275 (SEQ ID NO:126) (VHH)
# VHH: B1 VHH with A40R, N77Q, I93V
# B45: vh279 (SEQ ID NO:131) (VHH)
# VHH: B1 VHH with A40R, Y80F, I93V
# B46: vh282 (SEQ ID NO:135) (VHH)
# VHH: B1 VHH with A40R, S85Q, I93V
# B47: vh281 (SEQ ID NO:134) (VHH)
# VHH: B1 VHH with A40R, S85T, I93V
# B48: vh428 (SEQ ID NO:146) fused to SEQ ID NO:160, Example 5 (VHH)
# chain (part 1 of 2): B1 VHH with Y32F, G35A, A40R, K59Y, I93V, K106R, A108T, D114Q
# chain (part 2 of 2): not shown
# B49: vh359 (SEQ ID NO:145) fused to SEQ ID NO:160, Example 5 (VHH)
# chain (part 1 of 2): QVQLVESGGGSVQAGGSLSLSCTISGRTLSDFTMAWFRQRPGKEREFVAAISWSGAYTYYTDSVKGRFTISRDNAKNTVYLQMQSLKPEDTAVYYCAAGPTGLLSRKTTPADYQYWGQGTQVTVSS
# chain (part 2 of 2): not shown
# B50: vh374 (SEQ ID NO:144) fused to SEQ ID NO:160, Example 5 (VHH)
# chain (part 1 of 2): B49 chain (part 1 of 2) with V5Q, E6Q, S19R, I24S, K43R, E44A, Y80F, V93I
# chain (part 2 of 2): not shown
# B51: vh118 (SEQ ID NO:80) fused to SEQ ID NO:160, Example 5 (VHH)
# chain (part 1 of 2): B1 VHH with A40R, I93V
# chain (part 2 of 2): not shown
# B52: Candidate 4A-1: vh342 fusion protein (SEQ ID NO:163) (VHH)
# VHH: B1 VHH with Q6E, S11L, A14P, T23A, I24A, E44Q, A61T, N77T, I93V
# Molecular target: T1, AAV9 viral particles (adeno-associated virus 9)
# Test: SPR (Biacore), polypeptide amine-coupled to CM5, AAV9 analyte; response normalized to SEQ ID NO:80
row,Binder,Normalized AAV9 binding capacity (%)
1,B1,101
2,B2,108
3,B3,101
4,B4,92
5,B5,115
6,B6,97
7,B7,100
8,B8,87
9,B9,77
10,B10,105
11,B11,104
12,B12,83
13,B13,100
14,B14,69
15,B15,72

# Molecular target: T1, AAV9 viral particles
# Test: as above
# Remark: another data set of the same source
row,Binder,Normalized AAV9 binding capacity (%)
1,B16,96
2,B17,86
3,B18,102
4,B19,103
5,B20,100
6,B21,106
7,B22,92
8,B23,99
9,B7,100
10,B24,86
11,B25,98
12,B26,73
13,B27,105

# Molecular target: T1, AAV9 viral particles
# Test: as above
# Remark: another data set of the same source
row,Binder,Normalized AAV9 binding capacity (%)
1,B28,109
2,B1,101
3,B29,99
4,B30,109
5,B31,112
6,B32,92
7,B33,103
8,B20,100
9,B34,82
10,B35,85
11,B36,111
12,B37,105
13,B7,100
14,B38,110
15,B39,91
16,B40,80
17,B41,100
18,B42,112
19,B43,109
20,B13,100
21,B44,94
22,B45,98
23,B46,88
24,B47,103

# Molecular target: T1, AAV9 viral particles
# Test: SPR (Biacore 8K+), fusion protein amine-coupled to CM5, AAV9 2E12 vp/ml; response normalized to vh118
row,Binder,Normalized AAV9 binding capacity (%)
1,B48,108
2,B49,86.4
3,B50,102
4,B51,100

# Molecular target: T1, AAV9 viral particles
# Test: SPR (Biacore 8K+), fusion protein amine-coupled to CM5, AAV9 2E12 vp/ml, report point late binding
row,Binder,Binding capacity AAV9 (2E12 vp/ml) (RU)
1,B52,9920
